# Patent US20130336893A1 (Sanofi, published 2013)
# *1 amine or outer side, *2 acyl side, *3 side chain or, on linkers, in order; H or OH if unused. Where no end group is shown, it is not given here. Side-chain parts run from the residue outwards. [ ]: non-standard residue; d: D form. The star is where a group is joined. γGlu = O=C(O)[C@H](CCC(=O)[*:2])N[*:1]; Palmitoyl = CCCCCCCCCCCCCCCC(=O)*; Propionyl = CCC(=O)*; βAla = NCCC(=O)O
# Legend:
# human glucagon receptor = human glucagon receptor (human, UniProt P47871 26-477); test: cell-based or functional assay
# human glucagon receptor, sequence (P47871 26-477): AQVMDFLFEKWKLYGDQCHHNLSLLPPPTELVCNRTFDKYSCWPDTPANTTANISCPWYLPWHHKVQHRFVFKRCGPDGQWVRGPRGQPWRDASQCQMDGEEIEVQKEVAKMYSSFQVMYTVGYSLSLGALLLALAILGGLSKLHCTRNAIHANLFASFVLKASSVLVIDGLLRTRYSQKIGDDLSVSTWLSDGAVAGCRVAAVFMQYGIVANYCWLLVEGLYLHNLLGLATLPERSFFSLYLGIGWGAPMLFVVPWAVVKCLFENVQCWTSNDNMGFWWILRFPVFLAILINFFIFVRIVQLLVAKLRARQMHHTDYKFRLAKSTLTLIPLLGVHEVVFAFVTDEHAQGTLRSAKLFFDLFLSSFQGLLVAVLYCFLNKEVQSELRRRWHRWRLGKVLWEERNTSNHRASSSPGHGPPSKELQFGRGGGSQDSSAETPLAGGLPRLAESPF
# human GLP-1 receptor = human GLP-1 receptor (human, UniProt P43220 24-463); test: cell-based or functional assay
Binder,EC50 hGlucagonR (cAMP formation) (human glucagon receptor) [nM],EC50 hGLP-1R (cAMP formation) (human GLP-1 receptor) [nM]
H[dS]QGTFTSDLSKQMESRRAQDFIEWLKSGGPSSGAPPPSK([βAla-βAla-Palmitoyl])-NH2 (N-terminus assumed; SMILES CCCCCCCCCCCCCCCC(=O)NCCC(=O)NCCC(=O)NCCCC[C@H](NC(=O)[C@H](CO)NC(=O)[C@@H]1CCCN1C(=O)[C@@H]1CCCN1C(=O)[C@@H]1CCCN1C(=O)[C@H](C)NC(=O)CNC(=O)[C@H](CO)NC(=O)[C@H](CO)NC(=O)[C@@H]1CCCN1C(=O)CNC(=O)CNC(=O)[C@H](CO)NC(=O)[C@H](CCCCN)NC(=O)[C@H](CC(C)C)NC(=O)[C@H](Cc1c[nH]c2ccccc12)NC(=O)[C@H](CCC(=O)O)NC(=O)[C@@H](NC(=O)[C@H](Cc1ccccc1)NC(=O)[C@H](CC(=O)O)NC(=O)[C@H](CCC(N)=O)NC(=O)[C@H](C)NC(=O)[C@H](CCCNC(=N)N)NC(=O)[C@H](CCCNC(=N)N)NC(=O)[C@H](CO)NC(=O)[C@H](CCC(=O)O)NC(=O)[C@H](CCSC)NC(=O)[C@H](CCC(N)=O)NC(=O)[C@H](CCCCN)NC(=O)[C@H](CO)NC(=O)[C@H](CC(C)C)NC(=O)[C@H](CC(=O)O)NC(=O)[C@H](CO)NC(=O)[C@@H](NC(=O)[C@H](Cc1ccccc1)NC(=O)[C@@H](NC(=O)CNC(=O)[C@H](CCC(N)=O)NC(=O)[C@@H](CO)NC(=O)[C@@H](N)Cc1c[nH]cn1)[C@@H](C)O)[C@@H](C)O)[C@@H](C)CC)C(N)=O) [SEQ ID NO: (98)],0.0146,0.0051
H[dS]QGTFTSDLSKQMESRRAQDFIEWLKSGGPSSGAPPPSK([γGlu-γGlu-Palmitoyl])-NH2 [SEQ ID NO: (97)],0.0363,0.0047
H[dS]QGTFTSDLSKQMESRRAQDFIEWLKEGGPSSGKPPPSK([γGlu-Palmitoyl])-NH2 (N-terminus assumed; SMILES CCCCCCCCCCCCCCCC(=O)N[C@@H](CCC(=O)NCCCC[C@H](NC(=O)[C@H](CO)NC(=O)[C@@H]1CCCN1C(=O)[C@@H]1CCCN1C(=O)[C@@H]1CCCN1C(=O)[C@H](CCCCN)NC(=O)CNC(=O)[C@H](CO)NC(=O)[C@H](CO)NC(=O)[C@@H]1CCCN1C(=O)CNC(=O)CNC(=O)[C@H](CCC(=O)O)NC(=O)[C@H](CCCCN)NC(=O)[C@H](CC(C)C)NC(=O)[C@H](Cc1c[nH]c2ccccc12)NC(=O)[C@H](CCC(=O)O)NC(=O)[C@@H](NC(=O)[C@H](Cc1ccccc1)NC(=O)[C@H](CC(=O)O)NC(=O)[C@H](CCC(N)=O)NC(=O)[C@H](C)NC(=O)[C@H](CCCNC(=N)N)NC(=O)[C@H](CCCNC(=N)N)NC(=O)[C@H](CO)NC(=O)[C@H](CCC(=O)O)NC(=O)[C@H](CCSC)NC(=O)[C@H](CCC(N)=O)NC(=O)[C@H](CCCCN)NC(=O)[C@H](CO)NC(=O)[C@H](CC(C)C)NC(=O)[C@H](CC(=O)O)NC(=O)[C@H](CO)NC(=O)[C@@H](NC(=O)[C@H](Cc1ccccc1)NC(=O)[C@@H](NC(=O)CNC(=O)[C@H](CCC(N)=O)NC(=O)[C@@H](CO)NC(=O)[C@@H](N)Cc1c[nH]cn1)[C@@H](C)O)[C@@H](C)O)[C@@H](C)CC)C(N)=O)C(=O)O) [SEQ ID NO: (104)],0.0287,0.0073
H[dS]QGTFTSDLSKQMESRRAQDFIEWLKEGGPSSGRPPPSK([γGlu-Palmitoyl])-NH2 (N-terminus assumed; SMILES CCCCCCCCCCCCCCCC(=O)N[C@@H](CCC(=O)NCCCC[C@H](NC(=O)[C@H](CO)NC(=O)[C@@H]1CCCN1C(=O)[C@@H]1CCCN1C(=O)[C@@H]1CCCN1C(=O)[C@H](CCCNC(=N)N)NC(=O)CNC(=O)[C@H](CO)NC(=O)[C@H](CO)NC(=O)[C@@H]1CCCN1C(=O)CNC(=O)CNC(=O)[C@H](CCC(=O)O)NC(=O)[C@H](CCCCN)NC(=O)[C@H](CC(C)C)NC(=O)[C@H](Cc1c[nH]c2ccccc12)NC(=O)[C@H](CCC(=O)O)NC(=O)[C@@H](NC(=O)[C@H](Cc1ccccc1)NC(=O)[C@H](CC(=O)O)NC(=O)[C@H](CCC(N)=O)NC(=O)[C@H](C)NC(=O)[C@H](CCCNC(=N)N)NC(=O)[C@H](CCCNC(=N)N)NC(=O)[C@H](CO)NC(=O)[C@H](CCC(=O)O)NC(=O)[C@H](CCSC)NC(=O)[C@H](CCC(N)=O)NC(=O)[C@H](CCCCN)NC(=O)[C@H](CO)NC(=O)[C@H](CC(C)C)NC(=O)[C@H](CC(=O)O)NC(=O)[C@H](CO)NC(=O)[C@@H](NC(=O)[C@H](Cc1ccccc1)NC(=O)[C@@H](NC(=O)CNC(=O)[C@H](CCC(N)=O)NC(=O)[C@@H](CO)NC(=O)[C@@H](N)Cc1c[nH]cn1)[C@@H](C)O)[C@@H](C)O)[C@@H](C)CC)C(N)=O)C(=O)O) [SEQ ID NO: (92)],0.038,0.006
H[dS]QGTFTSDLSKQMESRAAQDFIEWLKSGGPSSGAPPPSK([γGlu-Palmitoyl])-NH2 (N-terminus assumed; SMILES CCCCCCCCCCCCCCCC(=O)N[C@@H](CCC(=O)NCCCC[C@H](NC(=O)[C@H](CO)NC(=O)[C@@H]1CCCN1C(=O)[C@@H]1CCCN1C(=O)[C@@H]1CCCN1C(=O)[C@H](C)NC(=O)CNC(=O)[C@H](CO)NC(=O)[C@H](CO)NC(=O)[C@@H]1CCCN1C(=O)CNC(=O)CNC(=O)[C@H](CO)NC(=O)[C@H](CCCCN)NC(=O)[C@H](CC(C)C)NC(=O)[C@H](Cc1c[nH]c2ccccc12)NC(=O)[C@H](CCC(=O)O)NC(=O)[C@@H](NC(=O)[C@H](Cc1ccccc1)NC(=O)[C@H](CC(=O)O)NC(=O)[C@H](CCC(N)=O)NC(=O)[C@H](C)NC(=O)[C@H](C)NC(=O)[C@H](CCCNC(=N)N)NC(=O)[C@H](CO)NC(=O)[C@H](CCC(=O)O)NC(=O)[C@H](CCSC)NC(=O)[C@H](CCC(N)=O)NC(=O)[C@H](CCCCN)NC(=O)[C@H](CO)NC(=O)[C@H](CC(C)C)NC(=O)[C@H](CC(=O)O)NC(=O)[C@H](CO)NC(=O)[C@@H](NC(=O)[C@H](Cc1ccccc1)NC(=O)[C@@H](NC(=O)CNC(=O)[C@H](CCC(N)=O)NC(=O)[C@@H](CO)NC(=O)[C@@H](N)Cc1c[nH]cn1)[C@@H](C)O)[C@@H](C)O)[C@@H](C)CC)C(N)=O)C(=O)O) [SEQ ID NO: (103)],0.0459,0.0037
HSQGTFTSDLSKQMEERRAKDFIEWLKNGGPSSGAPPPS-NH2 [SEQ ID NO: (16)],2.13,0.0076
H[dS]QGTFTSDLSKQMESRRARLFIEWLKSGGPSSGAPPPSK([γGlu-Palmitoyl])-NH2 (N-terminus assumed; SMILES CCCCCCCCCCCCCCCC(=O)N[C@@H](CCC(=O)NCCCC[C@H](NC(=O)[C@H](CO)NC(=O)[C@@H]1CCCN1C(=O)[C@@H]1CCCN1C(=O)[C@@H]1CCCN1C(=O)[C@H](C)NC(=O)CNC(=O)[C@H](CO)NC(=O)[C@H](CO)NC(=O)[C@@H]1CCCN1C(=O)CNC(=O)CNC(=O)[C@H](CO)NC(=O)[C@H](CCCCN)NC(=O)[C@H](CC(C)C)NC(=O)[C@H](Cc1c[nH]c2ccccc12)NC(=O)[C@H](CCC(=O)O)NC(=O)[C@@H](NC(=O)[C@H](Cc1ccccc1)NC(=O)[C@H](CC(C)C)NC(=O)[C@H](CCCNC(=N)N)NC(=O)[C@H](C)NC(=O)[C@H](CCCNC(=N)N)NC(=O)[C@H](CCCNC(=N)N)NC(=O)[C@H](CO)NC(=O)[C@H](CCC(=O)O)NC(=O)[C@H](CCSC)NC(=O)[C@H](CCC(N)=O)NC(=O)[C@H](CCCCN)NC(=O)[C@H](CO)NC(=O)[C@H](CC(C)C)NC(=O)[C@H](CC(=O)O)NC(=O)[C@H](CO)NC(=O)[C@@H](NC(=O)[C@H](Cc1ccccc1)NC(=O)[C@@H](NC(=O)CNC(=O)[C@H](CCC(N)=O)NC(=O)[C@@H](CO)NC(=O)[C@@H](N)Cc1c[nH]cn1)[C@@H](C)O)[C@@H](C)O)[C@@H](C)CC)C(N)=O)C(=O)O) [SEQ ID NO: (91)],0.121,0.0067
H[dS]QGTFTSDLSKQMESRRAQDFIEWLKSGGPSSGAPPPK([βAla-βAla-Palmitoyl])-NH2 (N-terminus assumed; SMILES CCCCCCCCCCCCCCCC(=O)NCCC(=O)NCCC(=O)NCCCC[C@H](NC(=O)[C@@H]1CCCN1C(=O)[C@@H]1CCCN1C(=O)[C@@H]1CCCN1C(=O)[C@H](C)NC(=O)CNC(=O)[C@H](CO)NC(=O)[C@H](CO)NC(=O)[C@@H]1CCCN1C(=O)CNC(=O)CNC(=O)[C@H](CO)NC(=O)[C@H](CCCCN)NC(=O)[C@H](CC(C)C)NC(=O)[C@H](Cc1c[nH]c2ccccc12)NC(=O)[C@H](CCC(=O)O)NC(=O)[C@@H](NC(=O)[C@H](Cc1ccccc1)NC(=O)[C@H](CC(=O)O)NC(=O)[C@H](CCC(N)=O)NC(=O)[C@H](C)NC(=O)[C@H](CCCNC(=N)N)NC(=O)[C@H](CCCNC(=N)N)NC(=O)[C@H](CO)NC(=O)[C@H](CCC(=O)O)NC(=O)[C@H](CCSC)NC(=O)[C@H](CCC(N)=O)NC(=O)[C@H](CCCCN)NC(=O)[C@H](CO)NC(=O)[C@H](CC(C)C)NC(=O)[C@H](CC(=O)O)NC(=O)[C@H](CO)NC(=O)[C@@H](NC(=O)[C@H](Cc1ccccc1)NC(=O)[C@@H](NC(=O)CNC(=O)[C@H](CCC(N)=O)NC(=O)[C@@H](CO)NC(=O)[C@@H](N)Cc1c[nH]cn1)[C@@H](C)O)[C@@H](C)O)[C@@H](C)CC)C(N)=O) [SEQ ID NO: (100)],0.0166,0.0096
H[dS]QGTFTSDLSKQMESRRAQDFIEWLKSGGPSSGAPPPSK(Ac)-NH2 [SEQ ID NO: (105)],0.614,0.142
H[dS]QGTFTSDLSKQMESRRAQDFIEWLKSGGPSSGAPPPSK([γGlu-Propionyl])-NH2 [SEQ ID NO: (106)],1.32,0.315
H[dS]QGTFTSDLSKQMESRRAQDFIEWLKSGGPSSGAPPPSK([γGlu-aleuritolyl])-NH2 [SEQ ID NO: (93)],1.87,0.188
